Data on two molecules can be found in paper PMC9512048, “Characterization of a xylitol dehydrogenase from Aspergillus flavus and its application in L-xylulose production” (Frontiers in Bioengineering and Biotechnology, 2022).

As a reminder, the Km is the concentration of substrate that gives half-maximal velocity. One may read the kcat as the number of substrate molecules converted per active site and unit of time at saturation. For orientation: kcat/Km means the second-order rate constant that governs catalysis at low substrate concentration.

The target in one data set is T1, AfXDH (Aspergillus flavus, UniProt A0A7U2N396).
T1 construct: gene F9C07_11531; full length, 369 residues, 38,893 Da; 6xHis tag (printed as C-terminal, vector pQE80L); E. coli BL21 (DE3); monomer, 2 Zn per monomer
T1 sequence (A0A7U2N396 1-369): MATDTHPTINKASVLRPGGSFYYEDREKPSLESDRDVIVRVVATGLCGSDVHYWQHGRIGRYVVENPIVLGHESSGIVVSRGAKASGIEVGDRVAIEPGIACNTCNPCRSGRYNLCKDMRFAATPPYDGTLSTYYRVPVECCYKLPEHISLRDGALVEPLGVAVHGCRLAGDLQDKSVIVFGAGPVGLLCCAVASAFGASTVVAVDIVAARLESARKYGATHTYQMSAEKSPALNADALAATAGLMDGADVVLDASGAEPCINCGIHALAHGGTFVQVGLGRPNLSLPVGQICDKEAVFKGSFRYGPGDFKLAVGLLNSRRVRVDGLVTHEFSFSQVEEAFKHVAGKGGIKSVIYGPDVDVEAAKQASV
Put plainly: product inhibition of xylitol oxidation. Format: biochemical. The settings on record: read-out: K i, NADH.

Substrate in the data set “NADH formation at A340”: OC[C@@H](O)[C@@H](O)[C@H](O)[C@@H](O)CO
Put plainly: NADH formation at A340. Format: biochemical, Aspergillus flavus. To be noted: NAD+, pH 9.5, only in abstract, b45 prints 16.2 mM for xylitol, so order in abstract may be uncertain.

Substrate in data set [1]: NC(=O)c1ccc[n+]([C@@H]2O[C@H](COP(=O)(O)OP(=O)(O)OC[C@H]3O[C@@H](n4cnc5c(N)ncnc54)[C@H](O)[C@@H]3O)[C@@H](O)[C@H]2O)c1
As to the kind of experiment: NADH formation at A340, Michaelis-Menten fit. The settings on record: xylitol, 20 mM Tris-glycine pH 9.5, 0.1 mM Zn2+, 0.1-3 mM NAD+, b45 prints 0.15 mM, varied: cofactor. Format: biochemical, Aspergillus flavus. From the text: (§1) NADH formation at A340, Michaelis-Menten fit on AfXDH

Substrate in data set [2]: OC[C@@H](O)[C@H](O)[C@@H](O)CO
Put plainly: NADH formation at A340, Michaelis-Menten fit. In kind it is biochemical, Aspergillus flavus. The settings on record: NAD+, 20 mM Tris-glycine pH 9.5, 0.1 mM Zn2+, 16.9 in abstract and Table 2, but b45 prints 16.2 mM.
Text: as §1

On to `NC(=O)C1=CN([C@@H]2O[C@H](COP(=O)(O)OP(=O)(O)OC[C@H]3O[C@@H](n4cnc5c(N)ncnc54)[C@H](O)[C@@H]3O)[C@@H](O)[C@H]2O)C=CC1` [NADH], for which, at AfXDH, the Ki worked out at 250 µM.

B1: AfXDH (Aspergillus flavus NRRL3357) (protein)
chain: T1 sequence (A0A7U2N396 1-369)
notes: full length, 369 residues, 38,893 Da; 6xHis tag (printed as C-terminal, vector pQE80L); E. coli BL21 (DE3); monomer, 2 Zn per monomer
As for B1, the Km in the data set “NADH formation at A340” is given as 16.2 mM; in data set [1] it was 0.17 mM; in data set [2] it was 16.9 mM. Besides, in data set [2], the kcat was 48.67 s⁻¹. The kcat/Km in data set [2] was found to be 2880 M⁻¹ s⁻¹.
